# Laboratory results taken from US20220089698A1 (published 2022).
# Changes are numbered by the printed parent chain.
# T1: Cyno FcγRIIB (cynomolgus macaque, UniProt A0A140HDN4 43-217)
# T1 construct: also called cynomolgus macaque FcγRIIB
# T1 sequence: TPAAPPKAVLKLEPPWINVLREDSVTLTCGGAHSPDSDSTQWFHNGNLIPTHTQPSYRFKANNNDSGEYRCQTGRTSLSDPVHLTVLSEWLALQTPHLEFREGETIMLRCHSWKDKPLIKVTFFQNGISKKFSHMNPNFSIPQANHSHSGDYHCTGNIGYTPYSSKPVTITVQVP
# T2: Cyno FcγRIIA (cynomolgus macaque, UniProt A0A140HDM9 28-216)
# T2 construct: also called cynomolgus macaque FcγRIIA
# T2 sequence: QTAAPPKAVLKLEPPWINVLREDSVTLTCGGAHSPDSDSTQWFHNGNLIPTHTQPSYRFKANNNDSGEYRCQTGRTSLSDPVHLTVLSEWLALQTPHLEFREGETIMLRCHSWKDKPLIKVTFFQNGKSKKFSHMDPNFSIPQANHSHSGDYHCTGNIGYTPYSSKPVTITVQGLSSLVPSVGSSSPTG
# B1: Antibody A-1 (antibody, human IgG1, kappa)
# heavy: QVQLLQSGAAVTKPGASVRVSCEASGYNIRDYFIHWWRQAPGQGLQWVGWINPKTGQPNNPRQFQGRVSLTRHASWDFDTFSFYMDLKALRSDDTAVYFCARQRSDYWDFDVWGSGTQVTVSSASTKGPSVFPLAPSSKSTSGGTAALGCLVKDYFPEPVTVSWNSGALTSGVHTFPAVLQSSGLYSLSSVVTVPSSSLGTQTYICNVNHKPSNTKVDKKVEPKSCDKTHTCPPCPAPELLAGPDVFLFPPKPKDTLMISRTPEVTCVVVDVSHEDPEVKFNWYVDGVEVHNAKTKPREEQYNSTYRVVSVLTVLHQDWLNGKEYKCKVSNKALPLPEEKTISKAKGQPREPQVYTLPPSREEMTKNQVSLTCLVKGFYPSDIAVEWESNGQPENNYKTTPPVLDSDGSFFLYSKLTVDKSRWQQGNVFSCSVLHEALHSHYTQKSLSLSPGK
# light: DIQMTQSPSSLSASVGDTVTITCQANGYLNWYQQRRGKAPKLLIYDGSKLERGVPSRFSGRRWGQEYNLTINNLQPEDIATYFCQVYEFVVPGTRLDLKRTVAAPSVFIFPPSDEQLKSGTASVVCLLNNFYPREAKVQWKVDNALQSGNSQESVTEQDSKDSTYSLSSTLTLSKADYEKHKVYACEVTHQGLSSPVTKSFNRGEC
# B2: Antibody 1.52.64-1 (antibody, human IgG1, kappa)
# heavy: B1 heavy with W76F
# light: B1 light with V19A
# B3: Antibody A (antibody, human IgG1, kappa)
# heavy: not shown
# light: B1 light
# Molecular target: HIV gp120 Bal (HIV-1)
# Assay: not given
row,Binder,EC50 [nM]
1,B1,0.06
2,B2,0.07
3,B3,0.05

# Molecular target: HIV gp120 CAAN (HIV-1)
# Assay: not given
row,Binder,EC50 [nM]
1,B1,2.17
2,B2,3.79
3,B3,1.84

# Molecular target: HIV gp120 REJO (HIV-1)
# Assay: not given
row,Binder,EC50 [nM]
1,B1,2.37
2,B2,4.02
3,B3,2.21

# Molecular target: T1, Cyno FcγRIIB
# Assay: SPR (Biacore 4000), antibody amine coupled to CM4 chip, receptor as analyte, steady-state fit
# Procedure: (§1) The in vitro binding dissociation constants (KD) of selected antibodies described herein for human and cynomolgus macaque (cyno) Fc binding receptors (FcγRs, FcRn) were determined using the Biacore 4000 surface plasmon resonace (SPR) biosensor, and either C1 or CM4 sensor chips (GE Healthcare).
# (§2) To determine cynomolgus macaque FcγRIIA, FcγRIIB, FcγRIII and FcγRI binding affinities each test antibody was amine coupled to a CM4 sensor chip at two densities (about 100 RU and about 800 RU). Cyno FcγRIIA and FcγRIIB were tested in a two-fold concentration series up to 1 μM. FcγRIII was tested in a two-fold concentration up to 500 nM. Cyno FcγRT was tested for binding using a two-step titration (3 nM and 30 nM). The response data for FcγRIIA, FcγRIIB, FcγRIII at steady-state were fit to a simple binding isotherm. Responses for FcγRI were fit to a simple kinetic model.
row,Binder,Kd [nM]
1,B1,240
2,B2,280
3,B3,895

# Molecular target: T2, Cyno FcγRIIA
# Assay: as above
# Procedure: as §1, §2
row,Binder,Kd [nM]
1,B1,1100
2,B2,1180
3,B3,2000
